# From PMC6450558
# B1: human ST3Gal-IV (Homo sapiens) (protein)
# chain: MVSKSRWKLLAMLALVLVVMVWYSISREDRYIELFYFPIPEKKEPCLQGEAESKASKLFGNYSRDQPIFLRLEDYFWVKTPSAYELPYGTKGSEDLLLRVLAITSSSIPKNIQSLRCRRCVVVGNGHRLRNSSLGDAINKYDVVIRLNNAPVAGYEGDVGSKTTMRLFYPESAHFDPKVENNPDTLLVLVAFKAMDFHWIETILSDKKRVRKGFWKQPPLIWDVNPKQIRILNPFFMEIAADKLLSLPMQQPRKIKQKPTTGLLAITLALHLCDLVHIAGFGYPDAYNKKQTIHYYEQITLKSMAGSGHNVSQEALAIKRMLEMGAIKNLTSF
# B2: human ST6Gal-I (Homo sapiens) (protein)
# chain: MIHTNLKKKFSCCVLVFLLFAVICVWKEKKKGSYYDSFKLQTKEFQVLKSLGKLAMGSDSQSVSSSSTQDPHRGRQTLGSLRGLAKAKPEASFQVWNKDSSSKNLIPRLQKIWKNYLSMNKYKVSYKGPGPGIKFSAEALRCHLRDHVNVSMVEVTDFPFNTSEWEGYLPKESIRTKAGPWGRCAVVSSAGSLKSSQLGREIDDHDAVLRFNGAPTANFQQDVGTKTTIRLMNSQLVTTEKRFLKDSLYNEGILIVWDPSVYHSDIPKWYQNPDYNFFNNYKTYRKLHPNQPFYILKPQMPWELWDILQEISPEEIQPNPPSSGMLGIIIMMTLCDQVDIYEFLPSKRKTDVCYYYQKFFDSACTMGAYHPLLYEKNLVKHLNQGTDEDIYLLGKATLPGFRTIHC
# Substrate: CC(=O)N[C@H]1[C@H]([C@H](O)[C@H](O)CO)O[C@](OP(=O)(O)OC[C@H]2O[C@@H](n3ccc(N)nc3=O)[C@H](O)[C@@H]2O)(C(=O)O)C[C@@H]1O
# Assay: sialyltransferase kinetics, donor varied
# Type: biochemical, Homo sapiens
# Settings: acceptor LacNAc-butyl (11), fixed concentration
Protein,Km,kcat,kcat/Km
B1,300 ± 66 µM,0.0233 ± 0.00167 s⁻¹,78.3 ± 25 M⁻¹ s⁻¹
B2,119 ± 16 µM,0.183 ± 0.00667 s⁻¹,1530 ± 417 M⁻¹ s⁻¹
